Results taken from patent US20150203577A1 (Chugai, published 2015).
Numbering of substitutions follows the chain as printed. In names and notes the source's numbering stands.

What was measured:
[1] = molecular target: T1, mouse FcγRII extracellular domain, C-terminal His tag (mouse, UniProt P08101 30-210); experiment: SPR (Biacore T200); KD of H237-mIgG1/MRAL-k0 / KD of variant
T1 construct: Whole entry named; also called mFcγRII; mFcgRII
T1 sequence: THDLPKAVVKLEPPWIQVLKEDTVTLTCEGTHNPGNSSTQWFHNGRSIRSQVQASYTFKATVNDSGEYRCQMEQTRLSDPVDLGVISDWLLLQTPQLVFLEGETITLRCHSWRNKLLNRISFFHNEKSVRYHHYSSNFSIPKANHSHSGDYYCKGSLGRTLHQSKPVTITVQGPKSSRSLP
From the text: (§1) The antibody H chain variable region used was the variable region H237 (SEQ ID NO: 1) of the H chain VH3-IgG1 of the anti-IL-6 receptor antibody Fv4-IgG1 described in WO2009/125825. The antibody L chain commonly used was the L chain MRAL-k0 (SEQ ID NO: 2) of the anti-IL-6 receptor antibody tocilizumab. The aforementioned 7 variants were used as templates to substitute the amino acids at the alteration sites by the amino acids before the alteration. These variants were expressed and purified by the method of Reference Example 1 and evaluated for their binding to mFcγRII and mFcγRIII by the method of Reference Example 2 using Biacore T200.
(§2) Each altered antibody was analyzed for its interaction with each Fcγ receptor prepared above using Biacore T100 (GE Healthcare Japan Corp.), Biacore T200 (GE Healthcare Japan Corp.), Biacore A100, or Biacore 4000. The running buffer used was HBS-EP+ (GE Healthcare Japan Corp.). The assay temperature was set to 25° C. The sensor chips used were chips prepared by immobilizing Protein L (ACTIGEN or BioVision) onto Series S Sensor Chip CM5 (GE Healthcare Japan Corp.) or Series S Sensor Chip CM4 (GE Healthcare Japan Corp.) by the amine coupling method.

[2] = molecular target: T2, mouse FcγRIII extracellular domain, C-terminal His tag (mouse, UniProt P08508 31-215); experiment: as above
T2 construct: Whole entry named; also called mFcγRIII; mFcgRIII
T2 chain: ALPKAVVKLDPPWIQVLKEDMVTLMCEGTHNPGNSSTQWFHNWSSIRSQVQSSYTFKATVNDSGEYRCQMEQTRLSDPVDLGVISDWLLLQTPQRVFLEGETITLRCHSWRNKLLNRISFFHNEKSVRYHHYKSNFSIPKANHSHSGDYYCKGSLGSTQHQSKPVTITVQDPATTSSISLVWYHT
From the text: as §1, §2

mouse FcγRII [3] = molecular target: T3, mouse FcγRII (mouse, UniProt P08101 30-210); experiment: SPR (Biacore), antibody captured on Protein L
T3 construct: Extracellular domain with C-terminal His tag, made in FreeStyle 293 cells; also called mFcγRII; mFcgRII
T3 sequence: T1 sequence
Description: as §2
(§3) In order to calculate the KD value of each altered antibody for FcγR, kinetic analysis was conducted according to the following method: first, the antibody of interest was captured onto any of these chips and allowed to interact with mFcγR diluted with a running buffer. For the obtained sensorgram, the assay results were globally fit into the 1:1 Langmuir binding model using Biacore Evaluation Software to calculate an association rate constant ka (L/mol/s) and a dissociation rate constant kd (1/s). From these values, the dissociation constant KD (mol/L) was calculated.

mouse FcγRIII [4] = molecular target: T4, mouse FcγRIII (mouse, UniProt P08508 31-215); experiment: SPR (Biacore), antibody captured on Protein L
T4 construct: Extracellular domain with C-terminal His tag, made in FreeStyle 293 cells; also called mFcγRIII; mFcgRIII
T4 chain: T2 chain
Description: as §2, §3

mouse FcγRII [5] = molecular target: T3, mouse FcγRII; experiment: SPR (Biacore), KD of H237-mIgG1/MRAL-k0 (same run) / KD of variant
Description: as §2, §3

mouse FcγRIII [6] = molecular target: T4, mouse FcγRIII; experiment: as above
Description: as §2, §3

B1: H237-MB628/MRAL-k0 (antibody)
heavy: QVQLQESGPGLVKPSETLSLTCAVSGHSISHDHAWSWVRQPPGEGLEWIGFISYSGITNYNPSLQGRVTISRDNSKNTLYLQMNSLRAEDTAVYYCARSLARTTAMDYWGEGTLVTVSSAKTTPPSVYPLAPGSAAQTNSMVTLGCLVKGYFPEPVTVTWNSGSLSSGVHTFPAVLQSDLYTLSSSVTVPSSTWPSETVTCNVAHPASSTKVDKKIVPRDCGCKPCICEPAEVELVFIFPPKPKDVLTITLTPKVTCVVVDISKDDPEVQFSWFVDDVEVHTAQTQPREEQFNSTFRSVSELPIMHQDWLNGKEFKCRVNSAAFPAPIEKTISKTKGRPKAPQVYTIPPPKEQMAKDKVSLTCMITDFFPEDITVEWQWNGQPAENYKNTQPIMDTDGSYFVYSKLNVQKSNWEAGNTFTCSVLHEGLHNHHTEKSLSHSPGK
light: not shown
notes: copies: 2 + 2
- relative mFcγRII-binding activity (mIgG1 = 1) [1]: 2.09 fold
- relative mFcγRIII-binding activity (mIgG1 = 1) [2]: 0.083 fold

B2: H237-MB686/MRAL-k0 (antibody, mouse IgG1, kappa)
heavy: B1 heavy with P230V
light: not shown
notes: copies: 2 + 2
- relative mFcγRII-binding activity (mIgG1 = 1) [1]: 0.167 fold
- relative mFcγRIII-binding activity (mIgG1 = 1) [2]: 0.052 fold

B3: H237-MB636/MRAL-k0 (antibody, mouse IgG1, kappa)
heavy: B1 heavy with P230V, A231Y, L235N
light: not shown
notes: copies: 2 + 2
- relative mFcγRII-binding activity (mIgG1 = 1) [1]: 3.92 fold
- relative mFcγRIII-binding activity (mIgG1 = 1) [2]: 0.172 fold

B4: H237-MB700/MRAL-k0 (antibody, mouse IgG1, kappa)
heavy: B1 heavy with P230V, A231P, V233E, L235Y
light: not shown
notes: copies: 2 + 2
- Kd (mouse FcγRII [3]): 582 nM
- Kd (mouse FcγRIII [4]): 11600 nM
- relative mFcγRII-binding activity (mIgG1 = 1) (mouse FcγRII [5]): 0.56 fold
- relative mFcγRIII-binding activity (mIgG1 = 1) (mouse FcγRIII [6]): 0.04 fold

B5: H237-MB685/MRAL-k0 (antibody, mouse IgG1, kappa)
heavy: B1 heavy with E229T
light: not shown
notes: copies: 2 + 2
- relative mFcγRII-binding activity (mIgG1 = 1) [1]: 0.606 fold
- relative mFcγRIII-binding activity (mIgG1 = 1) [2]: 0.093 fold

B6: H237-MB642/MRAL-k0 (antibody, mouse IgG1, kappa)
heavy: B1 heavy with P230D, A231Y, L235Y
light: not shown
notes: copies: 2 + 2
- relative mFcγRII-binding activity (mIgG1 = 1) [1]: 1.65 fold
- relative mFcγRIII-binding activity (mIgG1 = 1) [2]: 0.1 fold

B7: H237-MB657/MRAL-k0 (antibody, mouse IgG1, kappa)
heavy: B1 heavy with A231N, L235F
light: not shown
notes: copies: 2 + 2
- relative mFcγRII-binding activity (mIgG1 = 1) [1]: 1.54 fold
- relative mFcγRIII-binding activity (mIgG1 = 1) [2]: 0.087 fold

B8: H237-MB732/MRAL-k0 (antibody, mouse IgG1, kappa)
heavy: B1 heavy with A231N, V233E
light: not shown
notes: copies: 2 + 2
- Kd (mouse FcγRII [3]): 321 nM
- Kd (mouse FcγRIII [4]): 13700 nM
- relative mFcγRII-binding activity (mIgG1 = 1) (mouse FcγRII [5]): 0.84 fold
- relative mFcγRIII-binding activity (mIgG1 = 1) (mouse FcγRIII [6]): 0.03 fold

B9: H237-MB886/MRAL-k0 (antibody, mouse IgG1, kappa)
heavy: B1 heavy with A231N, V233E, L235S
light: not shown
notes: copies: 2 + 2
- Kd (mouse FcγRII [3]): 246 nM
- Kd (mouse FcγRIII [4]): 7220 nM
- relative mFcγRII-binding activity (mIgG1 = 1) (mouse FcγRII [5]): 1.47 fold
- relative mFcγRIII-binding activity (mIgG1 = 1) (mouse FcγRIII [6]): 0.08 fold

B10: H237-MB731/MRAL-k0 (antibody, mouse IgG1, kappa)
heavy: B1 heavy with V233E
light: not shown
notes: copies: 2 + 2
- Kd (mouse FcγRII [3]): 238 nM
- Kd (mouse FcγRIII [4]): 15300 nM
- relative mFcγRII-binding activity (mIgG1 = 1) (mouse FcγRII [5]): 1.13 fold
- relative mFcγRIII-binding activity (mIgG1 = 1) (mouse FcγRIII [6]): 0.03 fold

B11: H237-MB715/MRAL-k0 (antibody, mouse IgG1, kappa)
heavy: B1 heavy with A231N, L235V
light: not shown
notes: copies: 2 + 2
- Kd (mouse FcγRII [3]): 236 nM
- Kd (mouse FcγRIII [4]): 11900 nM
- relative mFcγRII-binding activity (mIgG1 = 1) (mouse FcγRII [5]): 1.14 fold
- relative mFcγRIII-binding activity (mIgG1 = 1) (mouse FcγRIII [6]): 0.04 fold

B12: H237-MB702/MRAL-k0 (antibody, mouse IgG1, kappa)
heavy: B1 heavy with E229T, P230A, A231Y, L235N
light: not shown
notes: copies: 2 + 2
- Kd (mouse FcγRII [3]): 339 nM
- Kd (mouse FcγRIII [4]): 3520 nM
- relative mFcγRII-binding activity (mIgG1 = 1) (mouse FcγRII [5]): 0.96 fold
- relative mFcγRIII-binding activity (mIgG1 = 1) (mouse FcγRIII [6]): 0.14 fold

B13: H237-MB687/MRAL-k0 (antibody)
heavy: B1 heavy with A231P
light: not shown
notes: copies: 2 + 2
- relative mFcγRII-binding activity (mIgG1 = 1) [1]: 0.943 fold
- relative mFcγRIII-binding activity (mIgG1 = 1) [2]: 0.096 fold

B14: H237-MB693/MRAL-k0 (antibody, mouse IgG1, kappa)
heavy: B1 heavy with E229T, P230D, A231Y, L235Y
light: not shown
notes: copies: 2 + 2
- Kd (mouse FcγRII [3]): 267 nM
- Kd (mouse FcγRIII [4]): 5410 nM
- relative mFcγRII-binding activity (mIgG1 = 1) (mouse FcγRII [5]): 1.22 fold
- relative mFcγRIII-binding activity (mIgG1 = 1) (mouse FcγRIII [6]): 0.09 fold

B15: H237-MB694/MRAL-k0 (antibody, mouse IgG1, kappa)
heavy: B1 heavy with P230D, A231P, L235Y
light: not shown
notes: copies: 2 + 2
- Kd (mouse FcγRII [3]): 598 nM
- Kd (mouse FcγRIII [4]): 16400 nM
- relative mFcγRII-binding activity (mIgG1 = 1) (mouse FcγRII [5]): 0.54 fold
- relative mFcγRIII-binding activity (mIgG1 = 1) (mouse FcγRIII [6]): 0.03 fold

B16: H237-MB688/MRAL-k0 (antibody, mouse IgG1, kappa)
heavy: B1 heavy with E229T, P230V, A231Y, L235N
light: not shown
notes: copies: 2 + 2
- relative mFcγRII-binding activity (mIgG1 = 1) [1]: 0.634 fold
- relative mFcγRIII-binding activity (mIgG1 = 1) [2]: 0.081 fold

B17: H237-MB645/MRAL-k0 (antibody, mouse IgG1, kappa)
heavy: B1 heavy with P230V, A231Y, L235Y
light: not shown
notes: copies: 2 + 2
- relative mFcγRII-binding activity (mIgG1 = 1) [1]: 1.06 fold
- relative mFcγRIII-binding activity (mIgG1 = 1) [2]: 0.217 fold

B18: H237-MB632/MRAL-k0 (antibody, mouse IgG1, kappa)
heavy: B1 heavy with P230A, A231Y, L235N
light: not shown
notes: copies: 2 + 2
- relative mFcγRII-binding activity (mIgG1 = 1) [1]: 3.72 fold
- relative mFcγRIII-binding activity (mIgG1 = 1) [2]: 0.236 fold

B19: H237-MB646/MRAL-k0 (antibody, mouse IgG1, kappa)
heavy: B1 heavy with L235Y
light: not shown
notes: copies: 2 + 2
- relative mFcγRII-binding activity (mIgG1 = 1) [1]: 3.8 fold
- relative mFcγRIII-binding activity (mIgG1 = 1) [2]: 0.176 fold

B20: H237-MB718/MRAL-k0 (antibody, mouse IgG1, kappa)
heavy: B1 heavy with A231N, L235T
light: not shown
notes: copies: 2 + 2
- Kd (mouse FcγRII [3]): 247 nM
- Kd (mouse FcγRIII [4]): 5560 nM
- relative mFcγRII-binding activity (mIgG1 = 1) (mouse FcγRII [5]): 1.08 fold
- relative mFcγRIII-binding activity (mIgG1 = 1) (mouse FcγRIII [6]): 0.08 fold

B21: H237-MB703/MRAL-k0 (antibody, mouse IgG1, kappa)
heavy: B1 heavy with P230A, A231P, L235N
light: not shown
notes: copies: 2 + 2
- Kd (mouse FcγRII [3]): 345 nM
- Kd (mouse FcγRIII [4]): 4900 nM
- relative mFcγRII-binding activity (mIgG1 = 1) (mouse FcγRII [5]): 0.94 fold
- relative mFcγRIII-binding activity (mIgG1 = 1) (mouse FcγRIII [6]): 0.1 fold

B22: H237-MB793/MRAL-k0 (antibody)
heavy: B1 heavy with E229Q, A231N, L235I
light: not shown
notes: 'S2391' in r30c2 read as S239I; copies: 2 + 2
- Kd (mouse FcγRII [3]): 179 nM
- Kd (mouse FcγRIII [4]): 5500 nM
- relative mFcγRII-binding activity (mIgG1 = 1) (mouse FcγRII [5]): 1.37 fold
- relative mFcγRIII-binding activity (mIgG1 = 1) (mouse FcγRIII [6]): 0.07 fold

B23: H237-MB717/MRAL-k0 (antibody, mouse IgG1, kappa)
heavy: B1 heavy with A231N, L235P
light: not shown
notes: copies: 2 + 2
- Kd (mouse FcγRII [3]): 514 nM
- Kd (mouse FcγRIII [4]): 8620 nM
- relative mFcγRII-binding activity (mIgG1 = 1) (mouse FcγRII [5]): 0.52 fold
- relative mFcγRIII-binding activity (mIgG1 = 1) (mouse FcγRIII [6]): 0.05 fold

B24: H237-MB709/MRAL-k0 (antibody, mouse IgG1, kappa)
heavy: B1 heavy with L235T
light: not shown
notes: copies: 2 + 2
- Kd (mouse FcγRII [3]): 345 nM
- Kd (mouse FcγRIII [4]): 7690 nM
- relative mFcγRII-binding activity (mIgG1 = 1) (mouse FcγRII [5]): 0.78 fold
- relative mFcγRIII-binding activity (mIgG1 = 1) (mouse FcγRIII [6]): 0.06 fold
